Source: publication doi:10.1101/2025.03.23.644798 (bioRxiv, 2025)

Molecular target: the molecule itself
Test: native gel or EMSA

B1: wild-type D-amino acid oxidase from Schizosaccharomyces pombe (enzyme, UniProt Q9Y7N4 1-348, looked up)
chain: MTKENKPRDIVIVGAGVIGLTTAWILSDLGLAPRIKVIAKYTPEDRSVEYTSPWAGANFCSISATDDNALRWDKITYHRFAYLAKTRPEAGIRFADLRELWEYEPKHDKIRSWNTYVRDFKVIPEKDLPGECIYGHKATTFLINAPHYLNYMYKLLIEAGVEFEKKELSHIKETVEETPEASVVFNCTGLWASKLGGVEDPDVYPTRGHVVLVKAPHVTETRILNGKNSDTYIIPRPLNGGVICGGFMQPGNWDREIHPEDTLDILKRTSALMPELFHGKGPEGAEIIQECVGFRPSRKGGARVELDVVPGTSVPLVHDYGASGTGYQAGYGMALDSVMLALPKIKLA
  binding result: binds
